Measurements taken from patent US20110184152A1 (published 2011).
Blank lines part the entries; values can stand above or below the binder they belong to.

What was measured:
human serum albumin [1] = biological target: T1, human serum albumin (human, UniProt P02768 25-609); assay: SPR (Biacore), purified construct
T1 construct: also called HSA; HumanSA

mouse serum albumin [2] = biological target: T2, mouse serum albumin (mouse, UniProt P07724 25-608); assay: SPR (Biacore), purified construct
T2 construct: also called MSA; MurineSA

human serum albumin [3] = biological target: T1, human serum albumin; assay: SPR (Biacore), construct captured from HEK293 supernatant, HSA injected
human serum albumin [4] = biological target: T1, human serum albumin; assay: SPR (Biacore), running buffer pH7.0; pH 7
Description: (§1) Covalent immobilisation of the capture antibody was achieved by standard amine coupling chemistry.

human serum albumin [5] = biological target: T1, human serum albumin; assay: SPR (Biacore), purified construct; remark: listed apart in the source
mouse serum albumin [6] = biological target: T2, mouse serum albumin; assay: SPR (Biacore), purified construct; remark: listed apart in the source
human serum albumin [7] = biological target: T1, human serum albumin; assay: SPR (Biacore), running buffer pH6.0; pH 6
human serum albumin [8] = biological target: T1, human serum albumin; assay: SPR (Biacore), running buffer pH5.0; pH 5
Description: as §1

human serum albumin [9] = biological target: T1, human serum albumin; assay: SPR (Biacore), running buffer pH5.5; pH 5.5
Description: as §1

human serum albumin [10] = biological target: T1, human serum albumin; assay: SPR (BIAcore)
rat serum albumin = biological target: T3, rat serum albumin (rat, UniProt P02770 25-608); assay: affinity as humanised IgG; method not named
T3 construct: also called RatSA

human serum albumin [11] = biological target: T1, human serum albumin; assay: affinity as humanised IgG; method not named
mouse serum albumin [12] = biological target: T2, mouse serum albumin; assay: affinity as humanised IgG; method not named
IL-1β = biological target: T4, IL-1β; assay: SPR (Biacore), construct captured, IL-1β injected
T4 construct: also called IL-1 beta
Protocol: as §1
Kinetic parameters were determined by simultaneous global-fitting of the resulting sensorgrams to a standard 1:1 binding model using Biacore T100 Evaluation software.

human serum albumin [13] = biological target: T1, human serum albumin; assay: SPR (Biacore), construct captured, HSA injected

Kd (human serum albumin [1]): 6.72 nM | Kd (mouse serum albumin [2]): 8.01 nM | Kd (human serum albumin [3]): 9 nM | koff (human serum albumin [3]): 0.00016 s⁻¹ | kon (human serum albumin [3]): 17800 M⁻¹ s⁻¹ | Kd (human serum albumin [4]): 13.3 nM | Kd (human serum albumin [5]): 17.5 nM | Kd (mouse serum albumin [6]): 24.7 nM | Kd (human serum albumin [7]): 12.5 nM | Kd (human serum albumin [8]): 7.1 nM | Kd (human serum albumin [9]): 10.7 nM
B1: FabB-didAb, -dAbL1 (CK-G4Sx2) & dAbH1 (CH1-G4Sx2) (bispecific antibody)
heavy: ASTKGPSVFPLAPSSKSTSGGTAALGCLVKDYFPEPVTVSWNSGALTSGVHTFPAVLQSSGLYSLSSVVTVPSSSLGTQTYICNVNHKPSNTKVDKKVEPKSCGGGGSGGGGSEVQLLESGGGLVQPGGSLRLSCAVSGIDLSNYAINWVRQAPGKGLEWIGIIWASGTTFYATWAKGRFTISRDSTTVYLQMNSLRAEDTAVYYCARTVPGYSTAPYFDLWGQGTLVTVSS
light: RTVAAPSVFIFPPSDEQLKSGTASVVCLLNNFYPREAKVQWKVDNALQSGNSQESVTEQDSKDSTYSLSSTLTLSKADYEKHKVYACEVTHQGLSSPVTKSFNRGECGGGGSGGGGSDIVMTQSPSSVSASVGDRVTITCQSSPSVWSNFLSWYQQKPGKAPKLLIYEASKLTSGVPSRFKGSGSGTDFTLTISSLQPEDFATYYCGGGYSSISDTTFGGGTKVEIK
notes: also called FabB-645Fv (G4Sx2); FabB-645Fv (2xG4S)

Kd (human serum albumin [10]): 87 nM | koff (human serum albumin [10]): 0.00107 s⁻¹ | kon (human serum albumin [10]): 12300 M⁻¹ s⁻¹
B2: FabB-645dsFv (S3×G4S), Fv heavy mutation Y100cA (bispecific antibody, V domains shown)
VH: EVQLLESGGGLVQPGGSLRLSCAVSGIDLSNYAINWVRQAPGKCLEWIGIIWASGTTFYATWAKGRFTISRDSTTVYLQMNSLRAEDTAVYYCARTVPGYSTAPAFDLWGQGTLVTVSS
VL: DIVMTQSPSSVSASVGDRVTITCQSSPSVWSNFLSWYQQKPGKAPKLLIYEASKLTSGVPSRFKGSGSGTDFTLTISSLQPEDFATYYCGGGYSSISDTTFGCGTKVEIK

Kd (rat serum albumin): 7.9 nM | Kd (human serum albumin [11]): 0.82 nM | Kd (mouse serum albumin [12]): 2.9 nM
B3: Antibody 1 (Antibody 645) as humanised IgG (antibody, V domains shown)
VH: EVQLLESGGGLVQPGGSLRLSCAVSGIDLSNYAINWVRQAPGKGLEWIGIIWASGTTFYATWAKGRFTISRDSTTVYLQMNSLRAEDTAVYYCARTVPGYSTAPYFDLWGQGTLVTVSS
VL: DIVMTQSPSSVSASVGDRVTITCQSSPSVWSNFLSWYQQKPGKAPKLLIYEASKLTSGVPSRFKGSGSGTDFTLTISSLQPEDFATYYCGGGYSSISDTTFGGGTKVEIK
notes: tested as humanised IgG; one grafted VH and one grafted VL were designed for this antibody

Kd (IL-1β): 0.32 nM | koff (IL-1β): 6.46e-05 s⁻¹ | kon (IL-1β): 202000 M⁻¹ s⁻¹
B4: Fab′A (Fab, V domains shown)
VH: EVQLVESGGGLVQPGGSLRLSCAFSGFSLSTSGVGVGWVRQAPGKGLEWVAHIWWDGDESYNPSLKTQFTISKDTSKNTVYLQMNSLRAEDTAVYYCARNRYDPPWFVDWGQGTLVTVSS
VL: DIQMTQSPSSLSASVGDRVTITCRASQDISNYLSWYQQKPGKAPKLLIYYTSKLHSGVPSRFSGSGSGTDYTLTISSLQPEDFATYYCQQGKMLPWTFGQGTKVEIKR

binding result (human serum albumin [13]): no binding
B5: FabA (Fab, V domains shown)
VH: EVQLVESGGGLVQPGGSLRLSCAFSGFSLSTSGVGVGWVRQAPGKGLEWVAHIWWDGDESYNPSLKTQFTISKDTSKNTVYLQMNSLRAEDTAVYYCARNRYDPPWFVDWGQGTLVTVSS
VL: DIQMTQSPSSLSASVGDRVTITCRASQDISNYLSWYQQKPGKAPKLLIYYTSKLHSGVPSRFSGSGSGTDYTLTISSLQPEDFATYYCQQGKMLPWTFGQGTKVEIKR

Kd (mouse serum albumin [6]): 42.4 nM
B6: FabB-didAb, -dAbL2 (CK-G4Sx2) & dAbH2 (CH1-G4Sx2) (bispecific antibody)
heavy: ASTKGPSVFPLAPSSKSTSGGTAALGCLVKDYFPEPVTVSWNSGALTSGVHTFPAVLQSSGLYSLSSVVTVPSSSLGTQTYICNVNHKPSNTKVDKKVEPKSCGGGGSGGGGSEVQLVESGGGLVQPGGSLRLSCAVSGFSLSRYAMTWVRQAPGKGLEWIGTITTGGNTNYANWAKGRFTISKDSTTVYLQMNSLRAEDTAVYYCARGGYVSYADATELSLWGQGTLVTVSS
light: RTVAAPSVFIFPPSDEQLKSGTASVVCLLNNFYPREAKVQWKVDNALQSGNSQESVTEQDSKDSTYSLSSTLTLSKADYEKHKVYACEVTHQGLSSPVTKSFNRGECGGGGSGGGGSDIVMTQSPSTLSASVGDRVTITCQASQSIGSRLAWYQQKPGKAPKLLIYYASTVASGVPSRFKGSGSGTEFTLTISSLQPDDFATYYCQSYDYSSSSSYAFGGGTKVEIK
notes: also called FabB-648Fv (G4Sx2); FabB-648Fv (2xG4S)

Kd (rat serum albumin): 54 nM | Kd (mouse serum albumin [12]): 23 nM
B7: Antibody 2 (Antibody 648) as humanised IgG (antibody, V domains shown)
VH: EVQLVESGGGLVQPGGSLRLSCAVSGFSLSRYAMTWVRQAPGKGLEWIGTITTGGNTNYANWAKGRFTISKDSTTVYLQMNSLRAEDTAVYYCARGGYVSYADATELSLWGQGTLVTVSS
VL: DIVMTQSPSTLSASVGDRVTITCQASQSIGSRLAWYQQKPGKAPKLLIYYASTVASGVPSRFKGSGSGTEFTLTISSLQPDDFATYYCQSYDYSSSSSYAFGGGTKVEIK
notes: as for B3
